In IntAct's records for PubMed 20739936:

B1: Borealin (Homo sapiens), Q53HL2 (parent)
chain: MAPRKGSSRVAKTNSLRRRKLASFLKDFDREVEIRIKQIESDRQNLLKEVDNLYNIEILRLPKALREMNWLDYFALGGNKQALEEAATADLDITEINKLTAEAIQTPLKSAKTRKVIQVDEMIVEEEEEEENERKNLQTARVKRCPPSKKRTQSIQGKGKGKRSSRANTVTPAVGRLEVSMVKPTPGLTPRFDSRVFKTPGLRTPAAGERIYNISGNGSPLADSKEIFLTVPVGGGESLRLLASDLQRHSIAQLDPEALGNIKKLSNRLAQICSSIRTHK
partner: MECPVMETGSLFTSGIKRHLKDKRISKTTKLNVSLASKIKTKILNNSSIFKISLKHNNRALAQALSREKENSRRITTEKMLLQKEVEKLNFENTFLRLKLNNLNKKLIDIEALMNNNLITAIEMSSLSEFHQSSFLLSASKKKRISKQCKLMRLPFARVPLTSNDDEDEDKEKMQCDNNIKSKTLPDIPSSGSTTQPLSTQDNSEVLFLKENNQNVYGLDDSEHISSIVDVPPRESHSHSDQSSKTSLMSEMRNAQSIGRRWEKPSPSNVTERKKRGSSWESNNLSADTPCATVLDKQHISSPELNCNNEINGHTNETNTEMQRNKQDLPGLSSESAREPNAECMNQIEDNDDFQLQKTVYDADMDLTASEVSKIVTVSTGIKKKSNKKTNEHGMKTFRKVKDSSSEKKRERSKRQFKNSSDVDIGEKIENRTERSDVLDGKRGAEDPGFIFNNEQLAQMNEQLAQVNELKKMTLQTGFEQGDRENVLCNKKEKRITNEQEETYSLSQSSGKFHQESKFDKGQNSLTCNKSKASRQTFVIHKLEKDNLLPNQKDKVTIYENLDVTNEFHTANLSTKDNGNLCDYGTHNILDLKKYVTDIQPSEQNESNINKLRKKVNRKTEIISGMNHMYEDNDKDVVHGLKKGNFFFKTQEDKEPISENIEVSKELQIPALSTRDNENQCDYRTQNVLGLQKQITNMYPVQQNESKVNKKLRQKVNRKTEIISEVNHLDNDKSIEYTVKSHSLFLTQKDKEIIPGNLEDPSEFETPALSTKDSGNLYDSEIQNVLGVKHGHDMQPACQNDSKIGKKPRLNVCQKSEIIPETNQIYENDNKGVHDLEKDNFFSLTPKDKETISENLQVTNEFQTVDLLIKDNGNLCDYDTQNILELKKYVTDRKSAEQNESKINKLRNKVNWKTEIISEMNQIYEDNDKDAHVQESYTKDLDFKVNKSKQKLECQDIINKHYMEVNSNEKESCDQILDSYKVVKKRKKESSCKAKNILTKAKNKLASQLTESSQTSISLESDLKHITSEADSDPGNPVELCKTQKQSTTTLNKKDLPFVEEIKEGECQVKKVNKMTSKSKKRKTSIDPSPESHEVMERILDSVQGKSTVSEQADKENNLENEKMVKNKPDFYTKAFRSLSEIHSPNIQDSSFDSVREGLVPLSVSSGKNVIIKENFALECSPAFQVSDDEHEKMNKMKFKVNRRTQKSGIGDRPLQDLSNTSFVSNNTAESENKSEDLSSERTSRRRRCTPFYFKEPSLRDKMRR
B2: Borealin (Homo sapiens), Q53HL2 (parent)
chain: B1 chain
B3: Chromosomal passenger complex protein bir1 (Schizosaccharomyces pombe (strain ATCC 38366 / 972)), O14064 (parent)
chain: MKPITSSSKRRWNRFRREMCNYSKRLDTFQKKKWPRAKPTPETLATVGFYYNPISESNSEERLDNVTCYMCTKSFYDWEDDDDPLKEHITHSPSCPWAYILSSKNNPNQNPQAAALTKCREQTFVDKVWPYTNRPDYHCEPSVMAASGFVYNPTADAKDAAHCLYCDINLHDWEPDDDPYTEHKRRRADCVFFTWKDPNSLSPTKLSFLSTSNIDPEDLTEDNSILPVSPTRDSTKSHKTLNFSPSRKNNLNARPLTMSLYTNTSEEKDSQPTRAPQSPTKPVLLTAPRRKNKSPKKSKPAVFKPVKPIFSDEDEDDDDLTASQPFSKGICNDSMQVAKKNFTEEIPLKEDEKDNELEHLVSPATSVHTTVSDITGHQSVTDESDEQNNCMSTPPKIEIESKIEEEISVVSKSKEISSSVSSVGKEQNHTEKQVAIETPEQQKVEKEDEHLNLQGSFIEESTKQPISSKPSTSSPDMTDAATGGRVSSSSFRDKILQTNFSPRSTIDSFSNISKKRNSEEANDENDETNLKIPIPEKKRKFQEVLQSKNILVSSTEDSHEPVKVTEDSQTAIHVSKFEDLENKSMESEQSLQLLSESENDDKPLIDLIPLLAIKRKDNLVSGVLEKGKSTSTSKTKFDTSIVDFIEKPKTEISEVLPEEKRKAICDESQTVRVSIDRGVTKTRDVSSPVSDEKSENVNHEEANSGHTVMNVHSSLDPQPIVQPNELESGSYLKDLPDRNVGNSEKVTFQEDDINSPKLQSKNNQTVEAVNTETSDKLQEKEANHELENIEKIEEKLTEVDKVSLSDAFPDQEIKNSRTSVQNGTRSVSKNTPEKETKVDKIDNVSKKDVETSPGSCETSSAFAKTYAEKEVTSINLPSVRKPLDESYYDHSISPFDPLCQSSFLAPQTPVKSKHALPLVEANAPPWEPIDFSSLLESPVPNPVEPNKLSEKELDMTVEQWIKFMYAKCAKEFEEACEEKIEWLLEEGKRAEEYIQNL
partner: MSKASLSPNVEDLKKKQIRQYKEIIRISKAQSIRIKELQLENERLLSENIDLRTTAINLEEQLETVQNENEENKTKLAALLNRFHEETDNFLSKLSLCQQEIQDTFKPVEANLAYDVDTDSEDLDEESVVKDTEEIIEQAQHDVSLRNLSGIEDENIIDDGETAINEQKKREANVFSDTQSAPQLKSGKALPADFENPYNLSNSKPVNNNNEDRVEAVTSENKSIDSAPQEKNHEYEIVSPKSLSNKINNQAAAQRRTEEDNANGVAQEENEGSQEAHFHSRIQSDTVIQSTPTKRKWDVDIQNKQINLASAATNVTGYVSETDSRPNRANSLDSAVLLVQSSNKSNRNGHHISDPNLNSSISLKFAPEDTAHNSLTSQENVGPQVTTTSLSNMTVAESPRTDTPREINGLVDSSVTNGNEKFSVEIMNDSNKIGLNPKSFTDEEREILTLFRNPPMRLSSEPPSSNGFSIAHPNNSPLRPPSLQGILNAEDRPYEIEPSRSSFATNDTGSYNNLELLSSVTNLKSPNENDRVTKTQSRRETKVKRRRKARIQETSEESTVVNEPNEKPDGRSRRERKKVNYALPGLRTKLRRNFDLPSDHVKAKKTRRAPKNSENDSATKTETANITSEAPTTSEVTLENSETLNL

Variants of: B1
Conditions: with sgo2_human SGO2, Q562F6

effect of a mutation on the interaction | Variant
disrupting interaction strength | MAPRKGSSRVAKTNSLRRRKLASFLKDFDREVEIRIKQIESDRQNLLKEVDNLYNIEILRLPKALREMNWLDYFALGGNKQALEEAATADLDITEINKLTAEAIQAPLKSAKTRKVIQVDEMIVEEEEEEENERKNLQTARVKRCPPSKKRTQSIQGKGKGKRSSRANTVAPAVGRLEVSMVKPAPGLAPRFDSRVFKAPGLRAPAAGERIYNISGNGAPLADSKEIFLTVPVGGGESLRLLASDLQRHSIAQLDPEALGNIKKLSNRLAQICSSIRTHK [T106A;T171A;T185A;T189A;T199A;T204A;S219A]

Variants of: B2
Conditions: with sgo1_human SGO1, Q5FBB7
Sequence of sgo1_human SGO1, Q5FBB7 (Q5FBB7 whole entry): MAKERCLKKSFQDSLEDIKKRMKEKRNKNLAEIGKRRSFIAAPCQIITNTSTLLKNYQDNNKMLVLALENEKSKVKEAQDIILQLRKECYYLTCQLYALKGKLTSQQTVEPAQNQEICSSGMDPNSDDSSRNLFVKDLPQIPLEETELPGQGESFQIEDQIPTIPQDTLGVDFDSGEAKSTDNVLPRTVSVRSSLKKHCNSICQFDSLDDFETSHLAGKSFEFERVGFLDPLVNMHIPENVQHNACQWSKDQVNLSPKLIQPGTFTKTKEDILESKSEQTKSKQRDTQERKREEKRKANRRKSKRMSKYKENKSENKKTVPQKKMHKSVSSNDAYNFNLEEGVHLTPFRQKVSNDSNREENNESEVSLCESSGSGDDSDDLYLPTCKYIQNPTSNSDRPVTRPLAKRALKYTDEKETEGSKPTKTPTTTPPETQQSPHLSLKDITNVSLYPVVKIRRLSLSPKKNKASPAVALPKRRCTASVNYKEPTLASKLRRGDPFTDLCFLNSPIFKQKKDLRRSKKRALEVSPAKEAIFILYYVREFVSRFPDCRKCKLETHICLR

effect of a mutation on the interaction | Variant
disrupting interaction strength | MAPRKGSSRVAKTNSLRRRKLASFLKDFDREVEIRIKQIESDRQNLLKEVDNLYNIEILRLPKALREMNWLDYFALGGNKQALEEAATADLDITEINKLTAEAIQAPLKSAKTRKVIQVDEMIVEEEEEEENERKNLQTARVKRCPPSKKRTQSIQGKGKGKRSSRANTVAPAVGRLEVSMVKPAPGLAPRFDSRVFKAPGLRAPAAGERIYNISGNGAPLADSKEIFLTVPVGGGESLRLLASDLQRHSIAQLDPEALGNIKKLSNRLAQICSSIRTHK [T106A;T171A;T185A;T189A;T199A;T204A;S219A]

Variants of: B3
Conditions: with sgo2_schpo sgo2, O13734

effect of a mutation on the interaction | Variant
disrupting interaction | S202A;S229A;S244A;S278A;S294A;T393A;T831A;T908A

Variants of: B3
Conditions: with sgo2_schpo sgo2, O13734
Remark: another data set of the same source

effect of a mutation on the interaction | Variant
disrupting interaction | S202A;S229A;S244A;S278A;S294A
